Experimental data reported in publication PMC9071432.

Target: sg-Tu-Ts_dCC (Escherichia coli) (UniProt P0A6P1+P0CE48)
Assay: EMSA
Details: 10 mM Mg2+; printed >>30; none (in vitro transcript); EMSA: 50 mM Tris-Cl pH 7.4, 10 mM MgCl2, 50 mM NaCl, 10 mM b-ME, 10% glycerol, 37C 10 min, gel at ~25C; pull-down: Tu-GTP preincubated in 50 mM Tris-Cl pH 7.0 …

UniProt P0A6P1, sequence (P0A6P1 whole entry, chain 1 of 2): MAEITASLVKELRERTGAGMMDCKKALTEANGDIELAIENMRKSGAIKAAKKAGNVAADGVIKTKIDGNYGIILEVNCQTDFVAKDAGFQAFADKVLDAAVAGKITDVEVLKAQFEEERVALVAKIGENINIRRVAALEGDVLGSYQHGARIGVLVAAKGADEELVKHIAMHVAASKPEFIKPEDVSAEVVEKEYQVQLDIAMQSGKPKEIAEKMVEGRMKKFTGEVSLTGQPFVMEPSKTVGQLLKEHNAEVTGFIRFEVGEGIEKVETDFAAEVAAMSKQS
UniProt P0A6P1, sequence (P0CE48 whole entry, chain 2 of 2): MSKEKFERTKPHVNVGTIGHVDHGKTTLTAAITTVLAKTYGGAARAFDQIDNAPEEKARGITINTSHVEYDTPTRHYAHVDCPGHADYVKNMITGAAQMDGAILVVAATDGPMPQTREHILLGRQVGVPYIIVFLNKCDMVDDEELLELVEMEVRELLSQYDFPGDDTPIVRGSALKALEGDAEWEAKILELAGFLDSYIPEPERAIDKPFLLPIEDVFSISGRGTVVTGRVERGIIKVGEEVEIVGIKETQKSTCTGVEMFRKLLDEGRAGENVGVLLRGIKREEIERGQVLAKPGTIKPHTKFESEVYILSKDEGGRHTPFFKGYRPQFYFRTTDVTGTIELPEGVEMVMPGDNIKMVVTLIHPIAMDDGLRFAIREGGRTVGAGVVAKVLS

Sequence: UGGGGUAUCGCCAAGCGGUAAGGCACCGGAUUCUGAUUCCGGCAUUCCGAGGUUCGAAUCCUCGUACCCCAGCCA [tRNAGln transcript (U1-A72, wt), uncharged]
- Kd: > 30 µM
